Laboratory results reported in the supplement of paper PMC12764529.
± gives the half width of the 95% confidence interval.

Key:
[1] = folding stability dG unfold from trypsin proteolysis; higher = more stable
Method in brief: (§1)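 How resistant each design was to proteolysis was captured as K50, inferred by Bayesian fitting of sequencing counts. Unfolding free energy was then derived relative to a sequence-predicted unfolded-state K50 and a shared folded-state K50, per protease or combined. Digestion used trypsin and chymotrypsin at 11 threefold-diluted concentrations plus a no-protease condition, on mini-proteins under 80 residues without cysteine in a PA-tagged cDNA display construct. Designs were kept only when AlphaFold2 dimer inter-PAE was above 15.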

[2] = folding stability dG unfold from chymotrypsin proteolysis; higher = more stable
Method in brief: as §1

[3] = folding stability dG unfold (combined trypsin and chymotrypsin); higher = more stable
Method in brief: as §1

| Sequence | folding stability dG unfold [1] [kcal/mol] | folding stability dG unfold [2] [kcal/mol] | folding stability dG unfold [3] [kcal/mol] |
| --- | --- | --- | --- |
| SSYTVDVTFTDPSPPKPTHRTLSSIEDAIAEAKAELPPGSVATITVTYPDGSTETITIVGDGVVETKKTASA [r9_482_JUSTAS] | -0.116 ± 0.056 | 0.917 ± 0.039 | 0.561 ± 0.081 |
| STIRITLPKEELSPELLEALAKAPGLSEEELRDRLTVEEVDGEVVITLSPEVLEELRKRNPELLEALEKASA [r9_160_TrROS_Hall] | 3.32 ± 0.093 | 1.91 ± 0.054 | 2.59 ± 0.11 |
| STITIEVETPEELEKALVEAEKLVEKGKDVKIEIFVRNENGETLKLTFDIKQLPDGIPVLEIEVEPVPPPSA [r9_1023_TrMRF] | 1.89 ± 0.1 | 3.1 ± 0.041 | 2.74 ± 0.13 |
| STKLLPFEEALKEAEKAIKEGKKKVNITIYTPDGKTFNLTDVEKVKEFIEKEFPGISLSELTVTVSITPPES [r1_325_JUSTAS] | 2.86 ± 0.068 | 3.53 ± 0.065 | 3.3 ± 0.067 |
| STLEELLEAIEKLPPGAVVRITITLENGEKIELPIEMTVEELKEQLEALAAEHPGKKIEIKIEVIPKEELSA [r9_37_TrROS_Hall] | 3.66 ± 0.38 | 2.78 ± 0.28 | 3.43 ± 0.56 |
| STLEQILDAIESMPPGWVFRIKIHHPNGEPHEHRFNMTYDDIKAQLENMIDHHPGQPIKIKIEFMPPEDFSA [r9_37_TrROS] | 2.97 ± 0.11 | 3.72 ± 0.077 | 3.38 ± 0.064 |
| STLLEEAKAQAEAYLKAAGLELAPGDVVTLTVPYPGPLTLEITVHPGEKKLEITATDASTPTTHTLTFDESA [r9_426_JUSTAS] | 0.831 ± 0.039 | 1.16 ± 0.074 | 1.03 ± 0.079 |
| STLPPGATRTFEFTDPATGKKITVTLTRLPDGTVRVTLTTTDPATGKTTTETFTLPGETLEALLALVEESSA [r9_618_JUSTAS] | 4.28 ± 0.22 | 4.86 ± 0.12 | 4.68 ± 0.16 |
| STTEVEVTPLPGNSTLVTTTTTTPEFDPANGTIRYTSETTTTTITYTPGTTEPTTTTTTTTTTTTIPATTSA [r9_140_JUSTAS] | 0.639 ± 0.062 | 0.813 ± 0.12 | 0.814 ± 0.14 |
| SVEKAREALEEAGFEVTRIEVREDGTVRVTVRRDGKLVEIELTVEPPPPVEVVEEEPEVRVERRYSAEDLSA [r9_2_TrROS_Hall] | 0.499 ± 0.15 | -0.34 ± 0.42 | 0.212 ± 0.35 |
| SVEKARERLEKLGFKLVSVDPLEDGSVVLTFEFPDNKVVVLVDEDGNARIVAYNPSDGKFSEATFNLDDLSA [r9_2_TrMRF] | 2.84 ± 0.066 | 2.577 ± 0.024 | 2.7 ± 0.038 |
| SVFEMPIKLTLKRRDPDGKGRKVKVTIRIRFEMPPNLPPDDKNDPERRKMHQMMHSNMHERAESLADPLASA [r9_237_TrROS] | 1.41 ± 0.095 | 1.6 ± 0.36 | 1.67 ± 0.28 |
| SVKIKINWQRDPEDGRLYLMIEYRFEDDPQQAIEEIKDILERFGFKVPEIESITVDPGNGEITIPIRIPWSA [r9_876_TrROS] | 2.64 ± 0.097 | 2.62 ± 0.11 | 2.66 ± 0.22 |
| SVTVDEIAEWFANSFQQHGMKDVKVDVTVEPDPKNGRVRVDVQIRMTYPNPDGEKHRFEMTIPVEIPPNDSA [r9_440_TrROS] | 1.93 ± 0.051 | 1.93 ± 0.075 | 1.99 ± 0.12 |
| SVVLDVPYENRPDLLATIRALVAEKAPPVVVFVEAPEAERARLRRELEALGFTVEPTPVPNRYRITFRPASA [r9_600_TrMRF] | 3.15 ± 0.085 | 3.07 ± 0.058 | 3.15 ± 0.067 |
| SVYIPIPMGDPEGLKEMLDFIKNILEKNQENGYENVPIPIHMPNGGPFEFPIDPNSTLEEQLDQIEKFIESA [r9_127_TrROS] | 1.56 ± 0.11 | 0.663 ± 0.078 | 1.15 ± 0.24 |
| SYIKIPFNVWMPPDNAEAMAEEFANNLAQKHGWKIKGIKPVEPVPSPDGEWYPFRVSITIRMPDPEAINASA [r9_302_TrROS] | 1.62 ± 0.031 | 2.07 ± 0.13 | 1.82 ± 0.098 |
| SYKIHIMRPNGEMEEIPIKHPDGWKINIHRGPNKPFYIMVERYDPDGGPKPKPVIPIDSPEQALDKLKDASA [r9_942_TrROS] | -0.123 ± 0.18 | -0.11 ± 0.3 | 0.0153 ± 0.2 |
| TIVIENASVEQIKNAIKEAIKEGKEVKIIIKASPEEKEKIIEELKKLPEIKKVEKLPNGSIKITIKAKELKS [r1_324_TrROS_Hall] | 1.76 ± 0.083 | 2.82 ± 0.69 | 2.32 ± 0.66 |
| VDLGIRTESVGGRRYRVLIRRPGTGEPRVLEVEGTLEEARERALREIREEYPDLPVRSINPVPVPAPPWLES [r1_80_TrMRF] | -0.153 ± 0.19 | -0.154 ± 0.14 | -0.139 ± 0.15 |
| VDPDDPEYQRFVYFVQELAKTIVEEHQEEGPTVDELYITVDPNNVKIEPVDMPPDEWEEHQKEGRPVIPIRS [r1_134_TrROS] | 0.179 ± 0.14 | 0.187 ± 0.33 | -0.0608 ± 0.28 |
| WLKFPFPIYNPGFGRPAKFEIELWPDGQLQVTWNGQPILSIPIRIVPPPEVEVDPEYDPNGKEKPKWKYPGS [r1_496_TrROS] | 0.438 ± 0.22 | 1.81 ± 0.16 | 1.39 ± 0.35 |
